Laboratory results taken from patent US20260167720A1 (Amgen, published 2026).

Tests used:
Test in all cases: cell-based or functional assay
[1] = molecular target: T1, MSLN (Mesothelin) on HCT116 or GSU cells (UniProt Q13421 37-598, limits assumed)
[2] = molecular target: T2, CDH3 (Cadherin-3, P-Cadherin) on HCT116 or GSU cells (UniProt P22223 108-829, limits assumed)
[3] = molecular target: T1, MSLN (Mesothelin) on HCT116 or GSU cells; remark: listed apart in the source
[4] = molecular target: T2, CDH3 (Cadherin-3, P-Cadherin) on HCT116 …; remark: listed apart in the source

B1: MSLN-CDH3 T-cell engager molecule 2 (heteroFc multichain) (bispecific antibody)
chain 1: QVQLVQSGAEVKKPGASVKVSCKASGYTFTNYWMNWVRQAPGQCLEWMGNIAYGVAGTNYNQKFQGRVTMTVDTSSSTAYMELSRLRSDDTAVYYCATRYFYVMDYWGQGTLVTVSSGGGGQGGGGQGGGGQEIQMTQSPSSLSASVGDRVTITCRASQDISNYLNWYQQKPGKVPKLLIYYTSRLHSGVPSRFSGSGSGTDFTLTISSLQPEDVATYYCVQYAQFPLTFGCGTKVEIKSGGGGQEVQLVESGGGLVQPGGSLKLSCAASGFTFNKYAMNWVRQAPGKGMEWVARIRSKYNNYATYYADAVKDRFTISRDDSKNTLYLQMNNLKTEDTAVYYCVRAGNFGSSYISYFAYWGQGTLVTVSSGGGGQGGGGQGGGGQQTVVTQEPSLTVSPGGTVTITCGSSTGAVTSGNYPNWIQKKPGQAPRGLIGGTKFLAPGTPARFSGSLEGGKAALTLSGVQPEDEAEYYCVLYYSNRWVFGSGTKLTVLGGGGCPPCPAPELLGGPSVFLFPPKPKDTLMISRTPEVTCVVVDVSHEDPEVKFNWYVDGVEVHNAKTKPCEEQYGSTYRCVSVLTVLHQDWLNGKEYKCKVSNKALPAPIEKTISKAKGQPREPQVYTLPPSREEMTKNQVSLTCLVKGFYPSDIAVEWESNGQPENNYDTTPPVLDSDGSFFLYSDLTVDKSRWQQGNVFSCSVMHEALHNHYTQDSLSLSPGK
chain 2: CPPCPAPELLGGPSVFLFPPKPKDTLMISRTPEVTCVVVDVSHEDPEVKFNWYVDGVEVHNAKTKPCEEQYGSTYRCVSVLTVLHQDWLNGKEYKCKVSNKALPAPIEKTISKAKGQPREPQVYTLPPSRKEMTKNQVSLTCLVKGFYPSDIAVEWESNGQPENNYKTTPPVLKSDGSFFLYSKLTVDKSRWQQGNVFSCSVMHEALHNHYTQKSLSLSPGKGGGGQVQLQESGPGLVKPSETLSLTCTVSGGSISSSSYFWGWIRQPPGKCLEWIGNIYYSGSSNYNPSLKSRVTISVDTSKNQFSLKLSSVTAADTAVYYCARLPRGDRDAFDIWGQGTMVTVSSGGGGQGGGGQGGGGQEIVMTQSPSSLSASVGDRVTITCRASQGISNYLAWYQQKPGKVPKLLIYAASTLQSGVPSRFSGSGSGTDFTLTISSLQPEDFATYYCQQSYSTPFTFGCGTKVEIKSGGGGQEVQLVESGGGLVQPGGSLKLSCAASGFTFNKYAMNWVRQAPGKGMEWVARIRSKYNNYATYYADAVKDRFTISRDDSKNTLYLQMNNLKTEDTAVYYCVRAGNFGSSYISYFAYWGQGTLVTVSSGGGGQGGGGQGGGGQQTVVTQEPSLTVSPGGTVTITCGSSTGAVTSGNYPNWIQKKPGQAPRGLIGGTKFLAPGTPARFSGSLEGGKAALTLSGVQPEDEAEYYCVLYYSNRWVFGSGTKLTVL
EC50 GSU KO CDH3 [pM]; TDCC, CDH3 knocked out, MSLN left [1]: 2.5 pM
EC50 GSU WT [pM]; TDCC, cells double positive for CDH3 and MSLN [1]: 0.039 pM
EC50 GSU KO MSLN [pM]; TDCC, MSLN knocked out, CDH3 left [2]: 349 pM
EC50 GSU WT [pM]; TDCC, cells double positive for CDH3 and MSLN [2]: 0.039 pM
EC50 HCT116 KO CDH3 [pM]; TDCC, CDH3 knocked out, MSLN left [3]: 3.48 pM
EC50 HCT116 WT [pM]; TDCC, cells double positive for CDH3 and MSLN [3]: 0.013 pM
EC50 HCT116 KO MSLN [pM]; TDCC, MSLN knocked out, CDH3 left [4]: 1.77 pM
EC50 HCT116 WT [pM]; TDCC, cells double positive for CDH3 and MSLN [4]: 0.013 pM
